From paper PMC4786772, “Manipulation of prenylation reactions by structure-based engineering of bacterial indolactam prenyltransferases” (Nature Communications, 2016)

Assays:
Assay in all cases: purified protein
Settings in all cases: 150 μM (−)-indolactam V, 42 °C, 5 min, Tris-HCl pH 7.0, 150 mM NaCl
[1] = tested on: CC(C)=CCOP(=O)(O)OP(=O)(O)O
[2] = tested on: CC(C)=CCC/C(C)=C/COP(=O)(O)OP(=O)(O)O
[3] = tested on: CC(C)=CCC/C(C)=C/CC/C(C)=C/CO[P@@](=O)(O)OP(=O)(O)O

MpnD (Marinactinospora thermotolerans)
Km [1]: 4.8 ± 1.0 µM
kcat [1]: 0.882 ± 0.0433 s⁻¹
kcat/Km [1]: 183000 M⁻¹ s⁻¹
Km [2]: 26.0 ± 4.9 µM
kcat [2]: 0.0433 ± 0.00333 s⁻¹
kcat/Km [2]: 1700 M⁻¹ s⁻¹
Km [3]: 95.5 ± 17.1 µM
kcat [3]: 0.0867 ± 0.00833 s⁻¹
kcat/Km [3]: 900 M⁻¹ s⁻¹

MpnD (Marinactinospora thermotolerans; M159A)
Km [1]: 24.2 ± 4.2 µM
kcat [1]: 0.505 ± 0.0333 s⁻¹
kcat/Km [1]: 20900 M⁻¹ s⁻¹
Km [2]: 9.1 ± 1.2 µM
kcat [2]: 0.0717 ± 0.00333 s⁻¹
kcat/Km [2]: 7900 M⁻¹ s⁻¹
Km [3]: 48.7 ± 14.6 µM
kcat [3]: 0.167 ± 0.015 s⁻¹
kcat/Km [3]: 3400 M⁻¹ s⁻¹

MpnD (Marinactinospora thermotolerans; Y80W)
Km [1]: 15.3 ± 2.5 µM
kcat [1]: 0.118 ± 0.005 s⁻¹
kcat/Km [1]: 7700 M⁻¹ s⁻¹
Km [2]: 9.7 ± 1.1 µM
kcat [2]: 0.09 ± 0.00167 s⁻¹
kcat/Km [2]: 9300 M⁻¹ s⁻¹

TleC (Streptomyces blastmyceticus)
Km [1]: 21.7 ± 4.3 µM
kcat [1]: 0.025 ± 0.00167 s⁻¹
kcat/Km [1]: 1100 M⁻¹ s⁻¹
Km [2]: 9.5 ± 3.3 µM
kcat [2]: 0.25 ± 0.025 s⁻¹
kcat/Km [2]: 26400 M⁻¹ s⁻¹

TleC (Streptomyces blastmyceticus; A173M)
Km [1]: 24.6 ± 3.0 µM
kcat [1]: 0.065 ± 0.00167 s⁻¹
kcat/Km [1]: 2600 M⁻¹ s⁻¹

TleC (Streptomyces blastmyceticus; A173M/F170W/W97Y)
Km [1]: 46.6 ± 8.2 µM
kcat [1]: 0.0433 ± 0.00333 s⁻¹
kcat/Km [1]: 900 M⁻¹ s⁻¹

TleC (Streptomyces blastmyceticus; A173M/W97Y)
Km [1]: 41.2 ± 5.6 µM
kcat [1]: 0.0333 ± 0.00167 s⁻¹
kcat/Km [1]: 800 M⁻¹ s⁻¹

TleC (Streptomyces blastmyceticus; W97Y)
Km [1]: 11.3 ± 1.6 µM
kcat [1]: 0.402 ± 0.0133 s⁻¹
kcat/Km [1]: 35500 M⁻¹ s⁻¹
Km [2]: 7.7 ± 1.0 µM
kcat [2]: 0.168 ± 0.00667 s⁻¹
kcat/Km [2]: 21800 M⁻¹ s⁻¹
